Results reported in patent publication US20070243191A1, “ANTI-HYPERPROLIFERATIVE THERAPIES TARGETING HDGF” (THE BOARD OF REGENTS OF THE UNIVERSITY OF TEXAS SYSTEM, priority 2005, published 2007).

B1: H3: anti-HDGF IgG1 monoclonal antibody; heavy chain SEQ ID NO:36, light chain SEQ ID NO:38 (antibody, V domains shown)
VH: QITLKQSGPGIVQPSQPVRLTCTFSGFSLSTSGIGVAWIRQPSGKGLEWLATIWWDDDNRYNPSLKSRLAVSKDTSNNQAFLNIITVETADTAIYYCAQIYDYAVGFAYWGQGTLVTVSA
VL: DIQMTQTTSSLSASLGDRVTISCRASQDISNYLNWYQQKPDGTVKLLIYYTSRLHSGVPSRFSGSGSGTDYSLTISNLEPDDIATYYCQQYGKLWTFGGGTKLEIK
modifications: H3 heavy chain aa; H3 light chain aa
B2: anti-HDGF monoclonal antibody C1 (antibody, V domains shown)
VH: EVQLVESGGRLVQPKGSLKLSCAASGFTFNTYAMYWIRQAPGKGLEWVARIRSKSYNYATYYADSVKDRFTISRDDSQSMLYLQMNNLKTADTAMYYCVSEGFWGQGTSVTVSS
VL: DVLMTQTPLSLPVSLGDQASISCRSSQSIVHSSGNTYLEWYLQKPGQSPKLLIYKVSNRFSGVPDRFSGSGSGTDFTLKISRVEAEDLGVYYCFQGSHVPWTFGGGTKLEIK
notes: also called HDGF C1-2f; C1 antibody
B3: C1: anti-HDGF IgG1 monoclonal antibody; heavy chain SEQ ID NO:32, light chain SEQ ID NO:34 (antibody, V domains shown)
VH: B2 VH
VL: B2 VL
modifications: C1 heavy chain aa; C1 light chain aa

Legend:
A549 xenograft [1] = test: A549 xenograft model, H3 in combination with gemcitabine and Avastin; assay type: in vivo, mouse; settings: single agents and combinations
Protocol: To determine potential synergistic effects of combining the antibodies with other cancer therapeutic agents, the H3 antibody was tested in combination with gemcitabine, a commonly used chemotherapeutic agent, and Avastin®, a FDA approved VEGF neutralizing monoclonal antibody, in the A549 xenograft model. At day 7 after tumor cell inoculation subcutaneously, the animals were randomized into one of the 8 groups: […] (6 mice), gemcitabine (5 mice), H3 (7 mice), Avastin® (5 mice), H3+gemcitabine (5 mice), 113+Avastin® (5 mice), Avastin®+gemcitabin (5 mice), and H3+ gemcitabine+Avastin® (7 mice). In this experiment, all the agents were given IP at day 7 and every 3 days thereafter for total 5 injections. H3 was given 250 μg per mouse/injection without boost at first injection; gemcitabine was given in a dose of 80 mg/kg/injection; and Avastin® was given 100 μg per mouse/injection.

tumor microvessels = test: CD31 staining of microvessels in treated A549 xenograft tumors; assay type: in vivo, mouse
Excerpt: In order to directly study the antiangiogenic action of anti-HDGF antibodies, the xenograph tumors treated with the various agents and presented in the foregoing example (see FIG. 8) were studied following CD31 staining. CD31 antibody staining is generally regarded as a convenient means of visualizing microvessels in order to assess angiogenesis and anti-angiogenic action. Each of the tumors treated as described with respect to FIG. 8 were subjected to CD31 staining.

HDGF [2] = biological target: T1, HDGF (Homo sapiens, UniProt P51858); test: Immunoprecipitation of HDGF from H460 total cell lysates; assay type: binding; settings: H460 NSCLC total cell lysates
T1 construct: The antibody sufficiently pulled down over 90% of the cellular HDGF; endogenous in cells; host or cells: H460 NSCLC cells (total cell lysate)
T1 sequence (P51858 whole entry): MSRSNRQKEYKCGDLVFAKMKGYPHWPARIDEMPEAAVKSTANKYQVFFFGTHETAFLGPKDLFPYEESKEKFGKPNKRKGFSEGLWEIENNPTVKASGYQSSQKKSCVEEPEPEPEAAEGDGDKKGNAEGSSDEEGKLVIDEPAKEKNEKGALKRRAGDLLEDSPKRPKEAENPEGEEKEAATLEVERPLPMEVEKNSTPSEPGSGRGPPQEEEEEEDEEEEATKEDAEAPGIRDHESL
Protocol: In most studies, HDGF was found localized in nuclear compartment. […] One possibility of the lacking cytoplasmic staining is the common IHC conditions. Alternatively, the protein may be rapidly released from cells making the detection of protein in cytoplasm difficult. Taking advantage of the newly developed monoclonal antibodies, two sets of experiments were performed to determine the subcellular localization of HDGF and the secretion/releasing status of the protein. In one set of experiment, H3 was used for immunoprecipitation (IP) employing total cell lysates from H460 NSCLC cells. The antibody sufficiently pulled down over 90% of the cellular HDGF. Some potential HDGF binding proteins might have also co-precipitated with HDGF. We then extracted cytoplasmic proteins and nuclear proteins separately and performed IP as described above followed by 2-DE protein separation. Although the relative HDGF protein amount was higher in the nuclear than in the cytoplasm with equal amount of protein loading, HDGF was clearly presented in cytoplasm with distinct modification or homologues patterns between the two subcellular compartments. It should be noted that the total amount of cytoplasmic proteins is much higher than the nuclear proteins. Therefore, the absolute amount of HDGF in cytoplasm may actually be similar or even higher to that in nuclear.

native HDGF [3] = biological target: native HDGF (Homo sapiens, UniProt P51858); test: Binding to native HDGF (immunoprecipitation, clone selection)
Sequence of native HDGF (Homo sapiens, UniProt P51858) (P51858 whole entry): as above
Excerpt: Thus, to develop a useful therapeutic that could affect tumor control, it was deemed important to develop high-affinity monoclonal antibodies that had the ability to bind native HDGF. An exemplary approach that was employed by the inventors involved, first, generating full-length recombinant HDGF in bacteria. This bacterially expressed recombinant HDGF was then used the immunize mice to generate mature B cells secreting antibodies specifically recognizing HDGF. After fusing the B cells with myeloma cells and several rounds of screening/selection steps, single clones secreting high-affinity IgGs capable to bind native HDGF were identified. […] Antibodies from these clones were selected and tested using IHC. Similar staining patterns were obtained in a panel of tumor samples among these antibodies and between these antibodies and the previously mentioned polyclonal antibodies, indicating these antibodies recognize HDGF. All of the four monoclonal antibodies are IgG1 and have been adapted to serum-free conditions for scale-up production.

A549 xenograft [4] = test: A549 xenograft model, individual monoclonal antibodies; assay type: in vivo, mouse; settings: for average tumor weights: 500 μg boost then 250 μg every three days x4 i.p., day 22, PBS 784±458; for tumor growth inhibition vs PBS and M31 controls: A549 xenograft, individual antibodies
Excerpt: To determine an anti-tumor effect of individual monoclonal antibodies, the CELLine™ system (BD Biosciences) was used to generate the amount of antibodies for each clone sufficient for our animal experiments. In our second experiment, we tested four individual monoclonal antibodies (H3, C1, C4, and L5-9) and used PBS and M31, an IgG1 antibody without known antigen, as controls. Cell inoculation was similar to the experiment described above, 7 days after subcutaneous injection of A549 cells, the animals with established tumors were randomized into one of the 6 groups. Besides PBS group, which was given 200 μl PBS every IP injection, all the other groups were given a 500 μg of individual antibody as boost dose followed by 250 μg/injection every three days for four times. Tumor sizes were measured every three days. All the animals were sacrificed at day 22 after tumor cell inoculation.

H460 xenograft = H460 xenograft model; assay type: in vivo, mouse
[5] = Antibody distribution after intra-peritoneal injection in tumor-bearing nude mice; assay type: in vivo; settings: for antibody localization in tumor tissue (anti-mouse IgG staining): tumor tissue sections of treated tumors
Protocol: To determine the distribution of the antibodies after intra-peritoneal injection in the animals, we injected fluoresce labeled M31 and H3 antibodies into nude mice and used a scanner to measure the antibody distribution 12 h after injection. […] To determine the antibody distribution in the tumor tissues and to compare the patterns of the distribution in the tumor tissues among the different antibodies, a specific anti-mouse IgG antibody was used to stain tumor tissue sections of tumors treated with different antibodies.

"MiaPaca-2" line (M109) = test: Putative MiaPaca-2 (believed M109 murine lung adenocarcinoma) xenograft model; assay type: in vivo, mouse; settings: putative MiaPaca-2 (murine M109) model, H3 compared with C1
Protocol: (§1) The two antibodies were tested using what was believed at the time to be the MiaPaca-2 pancreatic cancer xenograft model. […] This observation led to the use of H3 in the initial combination experiment described above. To determine the expression of HDGF in the cell line, a Western blot analysis was performed using C1 and H3 antibodies. […] To determine HDGF expression levels in pancreatic cancers, 7 additional pancreatic cancer cell lines were analyzed. All the 7 cell lines expressed high-level HDGF recognizable by H3 antibody but not the putative “MiaPaca-2” line.
(§2) An immunoprecipitation assay was then performed using H3 antibody to determine whether the antibody recognizes the native HDGF in the cells, which is important to explain why the antibody had inhibited the tumor growth in the xenograft model. […] Because the protein migrated faster than the HDGF from NSCLC cell lines, the HDGF cDNA from “MiaPaca-2” cells was sequenced. […] The origin of the cell line was traced and is now believed to be M109, a murine lung adenocarcinoma cell line from a mouse spontaneous lung cancer.

HDGF [6] = biological target: T2, HDGF (Mus musculus, UniProt P51859, A118D); test: Western blot of HDGF in putative MiaPaca-2 cells; assay type: binding; settings: putative MiaPaca-2 line (murine HDGF)
T2 construct: endogenous in cells; host or cells: putative MiaPaca-2 cells, believed to be M109 murine lung adenocarcinoma
T2 sequence (P51859 whole entry A118D): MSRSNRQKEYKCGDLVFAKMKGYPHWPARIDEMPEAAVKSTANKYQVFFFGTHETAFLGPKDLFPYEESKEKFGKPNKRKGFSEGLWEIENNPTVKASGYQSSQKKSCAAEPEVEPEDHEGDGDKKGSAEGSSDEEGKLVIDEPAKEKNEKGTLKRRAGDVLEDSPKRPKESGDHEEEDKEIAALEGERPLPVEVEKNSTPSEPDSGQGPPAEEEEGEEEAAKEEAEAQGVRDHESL
Protocol: as §1, §2

native HDGF [7] = biological target: T3, native HDGF (Mus musculus, UniProt P51859); test: Immunoprecipitation of native HDGF from putative MiaPaca-2 cells; assay type: binding; settings: putative MiaPaca-2 cells (murine HDGF)
T3 construct: endogenous in cells; host or cells: putative MiaPaca-2 cells, believed to be M109 murine lung adenocarcinoma
T3 sequence (P51859 whole entry): as the sequence (P51859 whole entry A118D) above, with D118A counted along it
Protocol: as §2

[8] = tested on: L3.6 pancreatic cancer cells; test: L3.6 pancreatic cancer xenograft model; assay type: in vivo; settings: mice with tumors bigger than 500 mg, one week after treatment
Protocol: Anti-HDGF antibodies were tested for a therapeutic effect in a xenograft model using metastatic L3.6 pancreatic cancer cells. After 10 days of tumor cell inoculation, mice were randomly selected into either M31 control antibody treatment, H3 antibody treatment, or C1 antibody treatment. The sizes of the tumors were between 100-200 mg at the time of treatment except three which grown bigger than 500 mg and were assigned to each group. […] This phenomenon is similar to human clinical observations where some established primary lung cancers develop liquidized central part of the tumors after treatment with agents having anti-angiogenic activity such as sorafenib (BAY 43-9006). This is a hallmark feature of anti-angiogenic agents as a class.

[9] = biological target: T4, human hepatoma-derived growth factor (HDGF) (human, UniProt P51858 1-240); test: sandwich ELISA, 40 ng C1 coated per well as capture antibody
T4 construct: In most assays the endogenous protein of human cancer cell lines or tissues (lysates for immunoprecipitation, denatured on Western blots); also called native HDGF; recombinant HDGF
T4 sequence (P51858 whole entry): as the sequence (P51858 whole entry) above

Molecule	tumor growth inhibition (A549 xenograft [1])	numbers of microvessels in the tumors (tumor microvessels)	size of the microvessels in the tumors (tumor microvessels)	binding to native HDGF (native HDGF [3])	average tumor weights (A549 xenograft [4])	tumor growth inhibition vs PBS and M31 controls (A549 xenograft [4])	tumor growth inhibition (H460 xenograft)	antibody localization in tumor tissue (anti-mouse IgG staining) [5]	detection of HDGF on Western blots (HDGF [6])	liquidized central part of tumor (hollow effect) [8]	also measured
Avastin®: FDA approved VEGF neutralizing monoclonal antibody [reference compound]	best inhibition	substantially reduced numbers of microvessels									
Nc1ccn([C@@H]2O[C@H](CO)[C@@H](O)C2(F)F)c(=O)n1 [gemcitabine, reference compound]	only modest tumor growth inhibition		further increase the size								
B1	best inhibition followed by H3	substantially reduced numbers of microvessels	stronger role in reducing the size	ability to immunoprecipitate HDGF	266±22	most significant tumor growth inhibition	effective in inhibiting tumor growth	entered into the cytoplasmic compartment of some tumor cells	did not detect HDGF	developed liquidized central part	cellular HDGF pulled down by immunoprecipitation (HDGF [2]): over 90%; antibody distribution in the animals including tumors ([5]; fluorescence-labeled antibody, 12 h after i.p. injection, nude mice): evenly distributed; tumor growth inhibition ("MiaPaca-2" line (M109)): better tumor growth inhibition; binding to native HDGF of the tumor cells (native HDGF [7]): strongly bound
B2											binding result [9]: binds
B3				ability to immunoprecipitate HDGF	224±85	most significant tumor growth inhibition	effective in inhibiting tumor growth	entered into both cytoplasm and nuclear	did not detect HDGF	developed liquidized central part	
